Tests used:
[1] = biological target: T1, PlyCA (heavy chain of the streptococcal C1 bacteriophage lysin PlyC) (streptococcal C1 bacteriophage, UniProt Q7Y3F1 2-465); assay: native PAGE against SDS/PAGE (two bands, PlyCA and PlyCB); N-terminal sequencing of the native band gives both chains
T1 construct: One PlyCA for eight PlyCB in the holoenzyme (about 114 kDa by gel filtration); also called PlyC heavy chain; plyCA gene product
T1 sequence (looked up): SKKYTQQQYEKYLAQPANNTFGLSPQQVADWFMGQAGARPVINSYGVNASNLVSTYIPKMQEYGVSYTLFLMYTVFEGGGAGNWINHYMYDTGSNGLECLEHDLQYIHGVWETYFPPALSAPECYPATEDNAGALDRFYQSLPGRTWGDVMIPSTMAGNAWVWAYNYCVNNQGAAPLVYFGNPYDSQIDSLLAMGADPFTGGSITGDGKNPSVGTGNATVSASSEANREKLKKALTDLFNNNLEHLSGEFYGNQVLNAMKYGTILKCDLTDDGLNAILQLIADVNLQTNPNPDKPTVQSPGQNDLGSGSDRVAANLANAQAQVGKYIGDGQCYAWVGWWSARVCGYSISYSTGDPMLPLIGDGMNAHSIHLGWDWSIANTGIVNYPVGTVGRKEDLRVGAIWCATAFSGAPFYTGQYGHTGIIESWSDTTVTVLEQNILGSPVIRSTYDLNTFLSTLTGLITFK
From the text: PlyC Consists of a Heavy Chain (PlyCA) and a Light Chain (PlyCB)—PlyC purified from C₁ bacteriophage lysates behaves as a homogeneous protein on native-gel electrophoresis (FIG. 1A). Moreover, this protein band is responsible for the lytic activity, as observed by formation of a clearing zone on an overlay of streptococci-embedded agarose (FIG. 1B). […] N-terminal sequencing of the PlyC heavy and light chains results in two unique sequences ([…] and […], respectively), and sequencing of the native band results in a dual sequence, which corresponds exactly to both chains.
Expression and Purification of the PlyC Clone—PlyC is induced with 0.5% arabinose overnight from XL1-blue/pBAD24::plyC cultures. Cells are washed in 20 mM phosphate buffer at pH 7.0 and are lysed with 20% wt/vol chloroform to yield crude PlyC. Alternatively, group C streptococci are infected with the C1 bacteriophage as previously described (Nelson et al., 2001), and phage-produced PlyC are isolated from the crude lysate. Purification of the phage-derived enzyme and the recombinant enzyme are identical to previously described methods (Nelson et al., 2001). Purified enzymes are routinely stored in PBS at 4° C. and are stable for several months. Purification of the individually expressed heavy and light chains use the same column-chromatography methods as the native enzyme. […]

[2] = biological target: the molecule itself; assay: gel filtration, with and without 0.1% SDS
[3] = biological target: the molecule itself; assay: Superose 12 gel filtration
From the text: N-terminal Deletion—The Del-8 mutant lacks the first 8 N-terminal amino acids of PlyCB but retains full binding activity. Formation of a stable octamer is confirmed by comparing the elution profile of the Del-8 PlyCB mutant on a Superose 12 gel to Bio-Rad gel filtration standards. Accordingly, the N-terminal region can be completely deleted and not affect formation of the stable octamer. Given the non-structural role of this sequence, this region can be modified or engineered.

B1: PlyCB octamer (wild-type) (other)
chain: SKINVNVENVSGVQGFLFHTDGKESYGYRAFINGVEIGIKDIETVQGFQQIIPSINISKSDVEAIRKAMKK
notes: Ring of eight identical PlyCB monomers, about 64 kDa; the partner of PlyCA in the PlyC holoenzyme; also called octameric protein
B1: binds [1].

B2: PlyCB monomer (wild-type, light chain of the streptococcal C1 bacteriophage lysin PlyC) (other)
chain: SKINVNVENVSGVQGFLFHTDGKESYGYRAFINGVEIGIKDIETVQGFQQIIPSINISKSDVEAIRKAMKK
notes: also called PlyC light chain; plyCB gene product
B2: binds [2].

B3: Del-8 PlyCB mutant (8 amino acid N-terminal deletion of PlyCB), monomer (other)
chain: NVSGVQGFLFHTDGKESYGYRAFINGVEIGIKDIETVQGFQQIIPSINISKSDVEAIRKAMKK
notes: Monomer, used for the entry on self-assembly into the octamer; also called N-terminal deletion variant of PlyCB
B3: binds [3].

Source: patent US20090092555A1 (published 2009)
